Measured values published in patent US20230331779A1 (SHAANXI MICOT TECHNOLOGY, published 2023).

Target: T1, calcium-sensing receptor (CaSR)
T1 sequence (P41180 whole entry, species assumed, looked up): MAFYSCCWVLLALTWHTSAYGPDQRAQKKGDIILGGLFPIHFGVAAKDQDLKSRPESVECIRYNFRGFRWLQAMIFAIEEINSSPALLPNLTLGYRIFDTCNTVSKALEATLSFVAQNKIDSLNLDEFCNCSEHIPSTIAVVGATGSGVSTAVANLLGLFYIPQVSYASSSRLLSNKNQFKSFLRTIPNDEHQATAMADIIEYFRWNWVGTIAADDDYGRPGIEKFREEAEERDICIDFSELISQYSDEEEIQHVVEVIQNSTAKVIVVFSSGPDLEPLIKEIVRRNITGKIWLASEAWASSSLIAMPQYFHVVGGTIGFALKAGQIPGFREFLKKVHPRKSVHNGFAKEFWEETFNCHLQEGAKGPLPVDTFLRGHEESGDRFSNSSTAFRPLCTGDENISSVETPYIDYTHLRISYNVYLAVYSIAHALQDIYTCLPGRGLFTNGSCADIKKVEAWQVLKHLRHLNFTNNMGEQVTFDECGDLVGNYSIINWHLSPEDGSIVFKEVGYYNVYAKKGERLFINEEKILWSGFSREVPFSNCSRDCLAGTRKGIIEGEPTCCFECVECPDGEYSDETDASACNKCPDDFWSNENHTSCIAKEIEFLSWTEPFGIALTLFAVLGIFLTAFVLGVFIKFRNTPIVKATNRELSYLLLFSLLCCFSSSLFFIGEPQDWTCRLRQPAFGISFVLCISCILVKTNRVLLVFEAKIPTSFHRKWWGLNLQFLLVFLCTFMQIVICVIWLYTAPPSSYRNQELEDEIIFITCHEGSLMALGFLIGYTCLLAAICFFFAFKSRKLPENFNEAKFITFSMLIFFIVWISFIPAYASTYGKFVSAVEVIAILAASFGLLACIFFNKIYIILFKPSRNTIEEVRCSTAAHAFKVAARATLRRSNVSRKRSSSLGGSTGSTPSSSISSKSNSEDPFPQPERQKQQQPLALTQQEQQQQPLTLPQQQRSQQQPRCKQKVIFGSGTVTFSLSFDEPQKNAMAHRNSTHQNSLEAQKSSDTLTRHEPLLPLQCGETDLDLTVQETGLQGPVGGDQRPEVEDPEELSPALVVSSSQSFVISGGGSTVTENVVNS
Assay: cell-based or functional assay

B1: polypeptide of Example 1 (active polypeptide SEQ ID NO: 10) (peptide)
peptide 1: CARRRAR
peptide 2: YXFGGC
modifications: D-Tyr 1; Aib (2-aminoisobutyric acid) 2; D-Phe 3; L-Cys 6 disulfide-bonded to D-Cys 1 of the Y chain; free amino and carboxyl termini (H2N-D-Tyr-Aib-D-Phe-Gly-Gly-L-Cys-OH); N-terminal acetyl (Ac); C-terminal amide (NH2); all residues D-amino acids (Ac-D-Cys-D-Ala-D-Arg-D-Arg-D-Arg-D-Ala-D-Arg-NH2); D-Cys 1 disulfide-bonded to L-Cys 6 of the X chain
In the case of B1, the “EC50 of agonistic activity on HEK293-CaSR cells, HTRF IP-1 competition method, at a Ca2+ concentration of 1.2 mM” value is reported as 84.7 µM and the “EC50 of agonistic activity on HEK293-CaSR cells, HTRF IP-1 competition method, in the absence of Ca2+” value is reported as 980 µM.
